Experimental data reported in patent US20220290113.

The sequences below were run on Nme2Cas9 (Neisseria meningitidis) (assay: cell_activity). Details: PAM N4CC; HEK293T, TIDE.
Work on “GUGUGUCCCUCUCCCCACCCGUCC / GTGTGTCCCTCTCCCCACCCGTCCCTGTCCGG / CCGGACAGGGACGGGTGGGGAGAGGGACACAC [TS47 sgRNA spacer ; TS47 VEGFA target + PAM]” yielded an activity of 23.1 % indels.
Work on “GGAGUCGCCAGAGGCCGGUGGUGG / GGAGTCGCCAGAGGCCGGTGGTGGATTTCCTC / GAGGAAATCCACCACCGGCCTCTGGCGACTCC [TS16 sgRNA spacer ; TS16 LINC01588 target + PAM]” yielded an activity of 28 % indels.
Sequence “GCCUCCCUGCAGGGCUGCUCCC / GCCTCCCTGCAGGGCTGCTCCCCAGCCCAA / TTGGGCTGGGGAGCAGCCCTGCAGGGAGGC [TS6 sgRNA spacer ; TS6 LINC01588 target + PAM]” has an activity of 20 % indels.
